Test results reported in patent US20250092426, “CAS ENDONUCLEASES AND RELATED METHODS” (Flagship Pioneering Innovations VII, LLC, published 2025).

Molecular target: T1, CasEnd-9 (synthetic construct)
T1 chain: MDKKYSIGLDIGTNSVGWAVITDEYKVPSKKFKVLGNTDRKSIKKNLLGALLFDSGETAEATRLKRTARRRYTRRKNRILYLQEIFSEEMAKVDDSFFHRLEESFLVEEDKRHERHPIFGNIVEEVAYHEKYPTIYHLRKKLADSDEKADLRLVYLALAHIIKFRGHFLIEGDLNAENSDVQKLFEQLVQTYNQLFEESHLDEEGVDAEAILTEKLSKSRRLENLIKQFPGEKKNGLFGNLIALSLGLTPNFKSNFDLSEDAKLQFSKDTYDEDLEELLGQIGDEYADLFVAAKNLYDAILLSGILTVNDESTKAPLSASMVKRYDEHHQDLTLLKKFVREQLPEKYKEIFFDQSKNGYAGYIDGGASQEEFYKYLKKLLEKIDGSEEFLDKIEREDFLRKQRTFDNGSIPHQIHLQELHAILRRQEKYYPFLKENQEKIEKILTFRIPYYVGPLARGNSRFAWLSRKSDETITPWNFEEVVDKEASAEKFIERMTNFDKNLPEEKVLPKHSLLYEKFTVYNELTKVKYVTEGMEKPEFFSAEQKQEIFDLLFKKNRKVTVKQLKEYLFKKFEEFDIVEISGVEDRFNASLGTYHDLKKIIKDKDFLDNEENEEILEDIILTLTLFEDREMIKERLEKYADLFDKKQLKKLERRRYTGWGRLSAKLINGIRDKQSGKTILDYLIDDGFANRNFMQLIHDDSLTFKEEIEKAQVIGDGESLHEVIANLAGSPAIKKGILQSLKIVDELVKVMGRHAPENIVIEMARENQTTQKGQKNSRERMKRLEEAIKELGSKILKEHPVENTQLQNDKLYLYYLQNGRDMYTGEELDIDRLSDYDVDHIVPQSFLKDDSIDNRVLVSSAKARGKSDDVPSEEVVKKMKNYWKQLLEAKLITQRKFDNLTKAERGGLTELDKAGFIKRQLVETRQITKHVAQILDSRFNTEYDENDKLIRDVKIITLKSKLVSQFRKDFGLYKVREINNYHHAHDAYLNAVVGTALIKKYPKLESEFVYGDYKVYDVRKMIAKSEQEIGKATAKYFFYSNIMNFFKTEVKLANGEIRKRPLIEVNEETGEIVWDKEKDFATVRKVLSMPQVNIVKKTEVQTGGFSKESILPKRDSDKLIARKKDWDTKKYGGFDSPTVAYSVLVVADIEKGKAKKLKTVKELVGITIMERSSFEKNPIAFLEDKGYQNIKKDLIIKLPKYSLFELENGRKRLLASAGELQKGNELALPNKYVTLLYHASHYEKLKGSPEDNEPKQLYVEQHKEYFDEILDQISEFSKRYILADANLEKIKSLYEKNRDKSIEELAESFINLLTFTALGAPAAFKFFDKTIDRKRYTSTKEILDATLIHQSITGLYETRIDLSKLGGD
Test: cell_activity; +++; HEK293T; PAM not stated
How it was run: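 Editing activity was scored as the fraction of GFP+ cells on day 4 by flow cytometry. BFP-expressing HEK293T cells (250,000) received by nucleofection 200 ng plasmid for the RT-Cas fusion protein and 200 ng template RNA plasmid designed to convert BFP to GFP.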

B1: BFP-to-GFP template RNA ; BFP reporter protospacer (ssRNA ; dsDNA)
RNA: GCCGAAGCACUGCACGCCGUGUUUUAGAGCUAGAAAUAGCAAGUUAAAAUAAGGCUAGUCCGUUAUCAACUUGAAAAAGUGGCACCGAGUCGGUGCACCCUGACGUACGGCGUGCAGUGCUU
DNA 1: GCCGAAGCACTGCACGCCGT
DNA 2: ACGGCGTGCAGTGCTTCGGC
Q: Which activity does the source give for B1 here?
A: ≥ 100 % of reference
